From the supplement of paper PMC9732359
± gives the uncertainty stated by the source.

Test: protein stability index of a GFP-peptide fusion (yeast GPS) (PSI 1-4); higher = more stable; sorted into four equal gates, so the index is relative within each strain
Settings: doa10∆
Procedure, shortened: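 Tiled 17-residue peptides from yeast proteins were fused downstream of GFP on a plasmid that also expresses Cherry, and the pooled library was carried in yeast. Mid-log cultures grown in leucine-free medium were sorted into four equal gates by GFP/Cherry fluorescence ratio. Plasmids from each gate were PCR-amplified and Illumina-sequenced, and reads were assigned to strains by barcodes. Each peptide's protein stability index is the sum, over gates, of the gate's read frequency multiplied by its gate number.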

FQDVYDLTGSEPIKEII [FAS1] and FQELDSKKQRNNGSKDH [RPN9] are within error of each other in protein stability index: 2.78 ± 0.25 for the first, 3.09 ± 0.17 for the second.

Same assay, conditions: pdr5∆

Going from ERVWNICLYSSFQKNSL [AAR2] to ESCEDILDLKEFDRRIL [RTT102], the protein stability index rises from 2.01 ± 0.046 to 3.37 ± 0.16.

Compared with ESDAPPKSTAPIFSFGK [YOR098C/NUP1], ESDYEPNNETSVLSSKP [SIR3] is higher in protein stability index: 2.58 ± 0.044 for the first, 3.08 ± 0.11 for the second.

Going from ESFPDDIPLAKALDNAC [CDC53] to ESIASSNTYKEERSNNL [MCD1], the protein stability index rises from 2.97 ± 0.058 to 3.37 ± 0.14.

First: ESKDLLRASFNKLSSIL [SRB4]
Second: ESLKKELQIFKTANSSS [YIL149C/MLP2]
The protein stability index of the first is lower: 1.33 ± 0.074 for the first, 2.93 ± 0.049 for the second.

Going from ESLPQYVDFVPMYKELW [POP4] to ESNNPSHDASRSLASFE [SIR4], the protein stability index rises from 2.45 ± 0.056 to 3.14 ± 0.12.

ESSDFGAIILTKMDGHA [SRP54] and ESSELNKDSIEECGRTI [CSN12] are within error of each other in protein stability index: 2.74 ± 0.094 for the first, 2.92 ± 0.16 for the second.

Going from ESYDAALSLHREILCYS [FAS2] to ETAKKITFHPKIRARSI [SMC2], the protein stability index rises from 2.151 ± 0.019 to 2.95 ± 0.06.

ETAQAINGWELTKAQKY [RPL17A] and ETDEYISYTSHIEGVVI [RPN1] are within error of each other in protein stability index: 3.35 ± 0.049 for the first, 3.44 ± 0.17 for the second.

Going from ETDHKTNENGETDDNIE [SRB4] to ETEIKDLTQLLEKERSI [SMC4], the protein stability index falls from 3.57 ± 0.15 to 3.15 ± 0.048.

First: ETEQEYSPSNEISISFD [YDL116W/NUP84]
Second: ETIENVKLQMIKFGGLI [ECM29]
The protein stability index of the first is lower: 2.89 ± 0.067 for the first, 3.37 ± 0.17 for the second.

ETLENGETRMKMLNEFV [SMC2] and ETLGLKYLGLKPGSIDA [FAS1] are within error of each other in protein stability index: 3.06 ± 0.24 for the first, 3.24 ± 0.097 for the second.

ETQVLVSTPEKWDITTR [BRR2] and ETVAKSKNAERKWAARA [RPS8A] are within error of each other in protein stability index: 3.26 ± 0.083 for the first, 3.362 ± 0.027 for the second.

Going from EVAKRLVELMFIRSTNS [FAS1] to EVEKAHPIRLYTRYLDR [PRP8], the protein stability index rises from 2.14 ± 0.069 to 2.51 ± 0.068.

Compared with EVFSVLGIEAARYSIIR [RPO31], EVHDLIGFITSGTYHLN [POP1] is higher in protein stability index: 1.63 ± 0.11 for the first, 2.64 ± 0.14 for the second.

EVKTPKIPLFTFAKSKN [SIR4] and EVLVTPGLEFLDDTTIP [MCD1] are the same in protein stability index: 2.98 ± 0.06 for the first, 2.98 ± 0.059 for the second.

EVQFGLFSPEEVRAISV [RPO21] and EVSGSIQYKKEYEELKE [SMC1] are within error of each other in protein stability index: 3.04 ± 0.059 for the first, 3.15 ± 0.14 for the second.

First: EVSKDLIAVYYSFGGLL [RPB8]
Second: EVTKLLKNEGIDLDHKR [SMC4]
The protein stability index of the first is lower: 2.7 ± 0.067 for the first, 3.2 ± 0.17 for the second.

Going from EVVKSLYDRPLKPDLNK [NAS6] to EVYKAEKDAVSVFGFRT [RPS24A], the protein stability index falls from 3.38 ± 0.098 to 3.12 ± 0.086.

Compared with EYIDDHRSGKIVVQLNG [RPS22A], EYRPFSKKVLECLPAEG [DIS3] is lower in protein stability index: 3.28 ± 0.17 for the first, 1.68 ± 0.12 for the second.

First: EYSRDCFCEDHCDKCSV [RPB3]
Second: FAAILVLLVLPFTDRSV [COB]
The protein stability index of the first is higher: 3.51 ± 0.15 for the first, 1.3 ± 0.095 for the second.

Compared with FAALSDSYGQGSMTKTW [SSN2], FAESPFFDKTSNNQVIK [MED6] is lower in protein stability index: 3.34 ± 0.088 for the first, 2.92 ± 0.096 for the second.

Going from FAEYIQANIQLYSIRED [PRE1] to FAFLNAMFFGNYGSSLQ [AAR2], the protein stability index falls from 2.67 ± 0.091 to 2.5 ± 0.075.

FAKEKLTKKEKKEANLF [RPL6A] and FAKQVDVQLERVADEDA [IRR1] are within error of each other in protein stability index: 3.08 ± 0.08 for the first, 3.13 ± 0.29 for the second.

FAQPVADIENSTSGDPS [SSN2] and FCRDCNNMLYPREDKEN [RPB9] are within error of each other in protein stability index: 3.14 ± 0.23 for the first, 3.11 ± 0.076 for the second.

FDDLEVEELPTFHDYDM [RRP42] and FDKLLNIPRRELKINLP [SRB4] are within error of each other in protein stability index: 2.63 ± 0.064 for the first, 2.6 ± 0.053 for the second.

Going from FDPSKDVLINELLDQVT [CDC53] to FDSLIKVQISKIPILAQ [RPN9], the protein stability index falls from 2.15 ± 0.047 to 1.8 ± 0.056.

First: FDTDWNPHQDLQAQDRA [SNF2]
Second: FDVNTLCLMTWKEVMFD [CDC53]
The protein stability index of the first is higher: 3.16 ± 0.056 for the first, 2.59 ± 0.065 for the second.

Going from FELVHHFFQIDGFNKTF [YML103C/NUP188] to FENVKLLAEYDNIYRNL [MED4], the protein stability index rises from 2.24 ± 0.091 to 2.64 ± 0.045.

Compared with FEPSISRSNFQGKHTKF [LRP1], FEYCRIDGSTSHEERIE [ISW2] is lower in protein stability index: 3.26 ± 0.15 for the first, 2.23 ± 0.052 for the second.

Going from FFDPKPFDQNLDSNNNN [SWI1] to FFSSDWRFLQILRNGID [POP1], the protein stability index falls from 2.83 ± 0.092 to 2.27 ± 0.088.

Compared with FGANQATNTFGSNQQSS [YGR119C/NUP57], FGSRVMIAKEVKTSPDA [FAS1] is lower in protein stability index: 3.26 ± 0.076 for the first, 2.76 ± 0.26 for the second.

First: FHESGSQYSTMVNIGLH [RGR1]
Second: FHFAIEQISNNSNQQQN [SIN4]
The protein stability index of the first is higher: 3.19 ± 0.11 for the first, 2.53 ± 0.044 for the second.

Compared with FHIDHTKPSDLTIKDIV [RPO21], FHSAVENLVQGNGNVSE [YCG1] is higher in protein stability index: 2.66 ± 0.06 for the first, 2.97 ± 0.067 for the second.

First: FILIPLYKIFSYALSME [SNU114]
Second: FIRDELDENKWYKFNDD [UBP6]
The protein stability index of the first is lower: 1.45 ± 0.037 for the first, 2.15 ± 0.043 for the second.

FIRKYINQKALRKIQAL [GAL11] and FITTLLKSLYSFFNISP [SIN4] are within error of each other in protein stability index: 1.49 ± 0.22 for the first, 1.5 ± 0.037 for the second.

Going from FKDETISKKIIGMSLLM [SIR3] to FKLQEEERERKDQYVPE [RPS17A], the protein stability index rises from 2.07 ± 0.06 to 3.38 ± 0.091.

Going from FKSALANLEDIIFEIEK [RRP6] to FKVARELKTEAAVLSNL [ITC1], the protein stability index falls from 3.13 ± 0.096 to 2.66 ± 0.11.

Going from FLANHKDRLYCGKCHSV [RPS31] to FLDGIYVSHKGFIVEDM [RPL9B], the protein stability index rises from 2.61 ± 0.13 to 2.86 ± 0.074.

First: FLIHSGQPVNDFIDTAT [RPS3]
Second: FLIKASVREINLYMLVT [SSN8]
The protein stability index of the first is higher: 3 ± 0.056 for the first, 1.43 ± 0.047 for the second.

FLKDADVECIKAKSHFT [YJL039C/NUP192] and FLLHNSEIIDTNTSKQF [SRB8] are within error of each other in protein stability index: 3.2 ± 0.14 for the first, 3.06 ± 0.069 for the second.

First: FLLNQNKQLSQSVEEKV [YIL149C/MLP2]
Second: FLNNGEVDSASDFISKL [RPN3]
The protein stability index of the first is lower: 1.84 ± 0.1 for the first, 3.33 ± 0.21 for the second.

First: FLQKFEIAFHLTLIFYD [YML103C/NUP188]
Second: FLRKATAFNKTRGPFHF [RPL16B]
The protein stability index of the first is lower: 1.46 ± 0.044 for the first, 3.12 ± 0.045 for the second.

First: FLRQKICLMTLIETVFV [RPN9]
Second: FLRTMKLTSEETVFNYR [GRR1]
The protein stability index of the first is lower: 1.32 ± 0.12 for the first, 2.81 ± 0.067 for the second.

FMSNDGPTLEKYISAEL [SNU114] and FMVRLDSEKHIDFAPTS [RPS9A] are within error of each other in protein stability index: 2.83 ± 0.078 for the first, 2.87 ± 0.047 for the second.

FNAIDLARHLPAELDLR [RPC82] and FNEDQLFSLLELGEQKC [RRP46] are within error of each other in protein stability index: 2.56 ± 0.076 for the first, 2.6 ± 0.089 for the second.

First: FNGADIRNCATEAGFFA [RPT4]
Second: FNGLKPLIQNSMRTIMK [PRP8]
The protein stability index of the first is higher: 3.38 ± 0.079 for the first, 2.51 ± 0.12 for the second.

FNIIREFRSAAGQLALD [YDL116W/NUP84] and FNKTTNIDINNEDENIQ [YJL041W/NSP1] are within error of each other in protein stability index: 3.16 ± 0.12 for the first, 3.31 ± 0.082 for the second.

FNNEAPPQTRKFQPPPG [SMB1] and FNPYGDNGGTILGIAGE [PRE7] are within error of each other in protein stability index: 3.11 ± 0.1 for the first, 3.24 ± 0.11 for the second.

Compared with FNRTKGKMVRAQDVALA [PRP8], FNSVQKKSRSNLSQEND [YAR002W/NUP60] is higher in protein stability index: 1.76 ± 0.13 for the first, 2.85 ± 0.071 for the second.

First: FNTQQGIKKHSLWRRTV [YDL116W/NUP84]
Second: FNVEYFAKEKLTKKEKK [RPL6A]
The protein stability index of the first is higher: 2.76 ± 0.043 for the first, 1.68 ± 0.066 for the second.
